Test results reported in patent US9896495 (ZEALAND PHARMA A S, dated 2018).
*1 amine or outer side, *2 acyl side, *3 side chain or, on linkers, in order; H or OH if unused. Side-chain parts run from the residue outwards. [ ]: non-standard residue; d: D form. The star is where a group is joined. C18 diacid = O=C(O)CCCCCCCCCCCCCCCCC(=O)*; γGlu = O=C(O)[C@H](CCC(=O)[*:2])N[*:1]; Ac4c = NC1(C(=O)O)CCC1; Aib = CC(C)(N)C(=O)O

T1: endogenous GLP-1 receptor of a murine insulinoma cell line (murine, UniProt O35659 22-463)
T1 sequence (looked up): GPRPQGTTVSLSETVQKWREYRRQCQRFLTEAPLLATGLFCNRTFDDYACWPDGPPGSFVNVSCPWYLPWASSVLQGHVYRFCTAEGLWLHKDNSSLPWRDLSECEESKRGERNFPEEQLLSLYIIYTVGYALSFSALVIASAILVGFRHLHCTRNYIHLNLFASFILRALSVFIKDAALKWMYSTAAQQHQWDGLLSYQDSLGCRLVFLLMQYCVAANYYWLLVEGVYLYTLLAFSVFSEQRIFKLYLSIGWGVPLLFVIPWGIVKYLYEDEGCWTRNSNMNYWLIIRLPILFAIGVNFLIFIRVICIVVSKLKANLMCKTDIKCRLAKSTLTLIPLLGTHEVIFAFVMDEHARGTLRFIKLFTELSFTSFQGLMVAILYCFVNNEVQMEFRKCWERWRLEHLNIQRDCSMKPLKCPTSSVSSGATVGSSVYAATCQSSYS

B1: H-H-Aib-QGTFTSDYSKYLDE-K([17-carboxy-heptadecanoyl]-isoGlu)-AAKDFIEWLESA-NH2 (peptide)
peptide: HXQGTFTSDYSKYLDEKAAKDFIEWLESA
modifications: Aib at position 2; Lys 17 side chain conjugated to [17-carboxy-heptadecanoyl]-isoGlu; C-terminal amide
B2: H-H-Aib-QGTFTSDYSKYLDERAAKDFI-K([17-carboxy-heptadecanoyl]-isoGlu-GSGSGG)-WLESA-NH2 (peptide)
peptide: HXQGTFTSDYSKYLDERAAKDFIKWLESA
modifications: Aib at position 2; Lys 24 side chain conjugated to [17-carboxy-heptadecanoyl]-isoGlu-GSGSGG; C-terminal amide
B3: H-H-Aib-QGTFTSDYSKYLD-K([17-carboxy-heptadecanoyl]-isoGlu-GSGSGG)-RAAKDFIEWLESA-NH2 (peptide)
peptide: HXQGTFTSDYSKYLDKRAAKDFIEWLESA
modifications: Aib at position 2; Lys 16 side chain conjugated to [17-carboxy-heptadecanoyl]-isoGlu-GSGSGG; C-terminal amide
B4: H-H-Ac4c-QGTFTSDYSKYLDERRAKDFIEWLE-K([17-carboxy-heptadecanoyl]-isoGlu-GSGSGG)-A-NH2 (peptide)
peptide: HXQGTFTSDYSKYLDERRAKDFIEWLEKA
modifications: Ac4c at position 2; Lys 28 side chain conjugated to [17-carboxy-heptadecanoyl]-isoGlu-GSGSGG; C-terminal amide
B5: H-H-Ac4c-QGTFTSDYSKYLD-K([17-carboxy-heptadecanoyl]-isoGlu-GSGSGG)-RAAKDFIEWLESA-NH2 (peptide)
peptide: HXQGTFTSDYSKYLDKRAAKDFIEWLESA
modifications: Ac4c at position 2; Lys 16 side chain conjugated to [17-carboxy-heptadecanoyl]-isoGlu-GSGSGG; C-terminal amide
B6: H-H-Ac4c-QGTFTSDYSKYLDERAAKDFIEWLE-K([17-carboxy-heptadecanoyl]-isoGlu-GSGSGG)-A-NH2 (peptide)
peptide: HXQGTFTSDYSKYLDERAAKDFIEWLEKA
modifications: Ac4c at position 2; Lys 28 side chain conjugated to [17-carboxy-heptadecanoyl]-isoGlu-GSGSGG; C-terminal amide
B7: H-H-Aib-QGTFTSDYSKYLE-K([17-carboxy-heptadecanoyl]-isoGlu-Peg3-Peg3)-RAAHDFIEWLESA-NH2 (peptide)
peptide: H-H[Aib]QGTFTSDYSKYLEK([Peg3-Peg3-γGlu-C18 diacid])RAAHDFIEWLESA-NH2
B8: H-H-Ac4c-QGTFTSDYSKYLDE-K([17-carboxy-heptadecanoyl]-isoGlu)-AAKDFIEWLESA-NH2 (peptide)
peptide: H-H[Ac4c]QGTFTSDYSKYLDEK([γGlu-C18 diacid])AAKDFIEWLESA-NH2
SMILES: CC[C@H](C)[C@H](NC(=O)[C@H](Cc1ccccc1)NC(=O)[C@H](CC(=O)O)NC(=O)[C@H](CCCCN)NC(=O)[C@H](C)NC(=O)[C@H](C)NC(=O)[C@H](CCCCNC(=O)CC[C@H](NC(=O)CCCCCCCCCCCCCCCCC(=O)O)C(=O)O)NC(=O)[C@H](CCC(=O)O)NC(=O)[C@H](CC(=O)O)NC(=O)[C@H](CC(C)C)NC(=O)[C@H](Cc1ccc(O)cc1)NC(=O)[C@H](CCCCN)NC(=O)[C@H](CO)NC(=O)[C@H](Cc1ccc(O)cc1)NC(=O)[C@H](CC(=O)O)NC(=O)[C@H](CO)NC(=O)[C@@H](NC(=O)[C@H](Cc1ccccc1)NC(=O)[C@@H](NC(=O)CNC(=O)[C@H](CCC(N)=O)NC(=O)C1(NC(=O)[C@@H](N)Cc2c[nH]cn2)CCC1)[C@@H](C)O)[C@@H](C)O)C(=O)N[C@@H](CCC(=O)O)C(=O)N[C@@H](Cc1c[nH]c2ccccc12)C(=O)N[C@@H](CC(C)C)C(=O)N[C@@H](CCC(=O)O)C(=O)N[C@@H](CO)C(=O)N[C@@H](C)C(N)=O
B9: H-H-Aib-QGTFTSDYSKYLE-K([17-carboxy-heptadecanoyl]-isoGlu-GSGSGG)-RAAKDFIEWLESA-NH2 (peptide)
peptide: HXQGTFTSDYSKYLEKRAAKDFIEWLESA
modifications: Aib at position 2; Lys 16 side chain conjugated to [17-carboxy-heptadecanoyl]-isoGlu-GSGSGG; C-terminal amide
B10: H-H-Ac4c-QGTFTSDYSKYLDERAAKDFI-K([17-carboxy-heptadecanoyl]-isoGlu-GSGSGG)-WLESA-NH2 (peptide)
peptide: H-H[Ac4c]QGTFTSDYSKYLDERAAKDFIKWLESA-NH2
modifications: not fully specified (residue 24)
B11: H-H-Aib-QGTFTSDYSKYLDS-K([15-carboxy-pentadecanoyl]-isoGlu)-AAHDFVEWLLSA-NH2 (peptide)
peptide: HXQGTFTSDYSKYLDSKAAHDFVEWLLSA
modifications: Aib at position 2; Lys 17 side chain conjugated to [15-carboxy-pentadecanoyl]-isoGlu; C-terminal amide
B12: H-H-Aib-QGTFTSDYSKYLD-K([17-carboxy-heptadecanoyl]-isoGlu-Peg3-Peg3)-RAAKDFIEWLESA-NH2 (peptide)
peptide: H-H[Aib]QGTFTSDYSKYLDK([Peg3-Peg3-γGlu-C18 diacid])RAAKDFIEWLESA-NH2
B13: H-H-Ac4c-HGTFTSDYSKYLDE-K([17-carboxy-heptadecanoyl]-isoGlu-Peg3-Peg3)-RAKDFIEWLESA-NH2 (peptide)
peptide: H-H[Ac4c]HGTFTSDYSKYLDEK([Peg3-Peg3-γGlu-C18 diacid])RAKDFIEWLESA-NH2
B14: H-H-Ac4c-QGTFTSDYSKYLDE-K([17-carboxy-heptadecanoyl]-isoGlu)-RAKDFIEWLESA-NH2 (peptide)
peptide: H-H[Ac4c]QGTFTSDYSKYLDEK([γGlu-C18 diacid])RAKDFIEWLESA-NH2
SMILES: CC[C@H](C)[C@H](NC(=O)[C@H](Cc1ccccc1)NC(=O)[C@H](CC(=O)O)NC(=O)[C@H](CCCCN)NC(=O)[C@H](C)NC(=O)[C@H](CCCNC(=N)N)NC(=O)[C@H](CCCCNC(=O)CC[C@H](NC(=O)CCCCCCCCCCCCCCCCC(=O)O)C(=O)O)NC(=O)[C@H](CCC(=O)O)NC(=O)[C@H](CC(=O)O)NC(=O)[C@H](CC(C)C)NC(=O)[C@H](Cc1ccc(O)cc1)NC(=O)[C@H](CCCCN)NC(=O)[C@H](CO)NC(=O)[C@H](Cc1ccc(O)cc1)NC(=O)[C@H](CC(=O)O)NC(=O)[C@H](CO)NC(=O)[C@@H](NC(=O)[C@H](Cc1ccccc1)NC(=O)[C@@H](NC(=O)CNC(=O)[C@H](CCC(N)=O)NC(=O)C1(NC(=O)[C@@H](N)Cc2c[nH]cn2)CCC1)[C@@H](C)O)[C@@H](C)O)C(=O)N[C@@H](CCC(=O)O)C(=O)N[C@@H](Cc1c[nH]c2ccccc12)C(=O)N[C@@H](CC(C)C)C(=O)N[C@@H](CCC(=O)O)C(=O)N[C@@H](CO)C(=O)N[C@@H](C)C(N)=O
B15: H-H-Ac4c-QGTFTSDYSKYLDE-K([17-carboxy-heptadecanoyl]-isoGlu-Peg3-Peg3)-RAKDFIEWLESA-NH2 (peptide)
peptide: H-H[Ac4c]QGTFTSDYSKYLDEK([Peg3-Peg3-γGlu-C18 diacid])RAKDFIEWLESA-NH2
B16: H-H-Ac4c-QGTFTSDYSKYLDERRAKDFI-K([17-carboxy-heptadecanoyl]-isoGlu-GSGSGG)-WLESA-NH2 (peptide)
peptide: HXQGTFTSDYSKYLDERRAKDFIKWLESA
modifications: Ac4c at position 2; Lys 24 side chain conjugated to [17-carboxy-heptadecanoyl]-isoGlu-GSGSGG; C-terminal amide

Assays:
Assay in all cases: cell-based or functional assay
[1] = biological target: human glucagon receptor (Glucagon-R) (human, UniProt P47871 26-477)
Sequence of human glucagon receptor (Glucagon-R) (P47871 26-477): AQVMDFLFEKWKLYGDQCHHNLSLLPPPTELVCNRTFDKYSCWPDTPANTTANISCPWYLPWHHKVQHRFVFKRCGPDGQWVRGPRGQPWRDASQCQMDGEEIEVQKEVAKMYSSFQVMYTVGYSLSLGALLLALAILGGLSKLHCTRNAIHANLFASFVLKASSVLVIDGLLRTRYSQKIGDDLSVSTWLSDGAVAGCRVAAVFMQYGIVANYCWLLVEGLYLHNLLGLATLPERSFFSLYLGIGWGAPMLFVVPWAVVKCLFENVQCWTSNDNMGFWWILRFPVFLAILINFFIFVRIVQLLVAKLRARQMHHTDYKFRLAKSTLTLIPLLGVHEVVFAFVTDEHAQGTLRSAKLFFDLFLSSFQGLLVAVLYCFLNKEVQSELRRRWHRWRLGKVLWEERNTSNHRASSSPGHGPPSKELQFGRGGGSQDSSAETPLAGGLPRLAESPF

[2] = biological target: human glucagon-like peptide 1 receptor (GLP-1R) (human, UniProt P43220 24-463)
[3] = biological target: T1, endogenous GLP-1 receptor of a murine …
[4] = biological target: endogenous glucagon receptor of primary rat hepatocytes (rat, UniProt P30082 27-485)
Sequence of endogenous glucagon receptor of primary rat hepatocytes (P30082 27-485): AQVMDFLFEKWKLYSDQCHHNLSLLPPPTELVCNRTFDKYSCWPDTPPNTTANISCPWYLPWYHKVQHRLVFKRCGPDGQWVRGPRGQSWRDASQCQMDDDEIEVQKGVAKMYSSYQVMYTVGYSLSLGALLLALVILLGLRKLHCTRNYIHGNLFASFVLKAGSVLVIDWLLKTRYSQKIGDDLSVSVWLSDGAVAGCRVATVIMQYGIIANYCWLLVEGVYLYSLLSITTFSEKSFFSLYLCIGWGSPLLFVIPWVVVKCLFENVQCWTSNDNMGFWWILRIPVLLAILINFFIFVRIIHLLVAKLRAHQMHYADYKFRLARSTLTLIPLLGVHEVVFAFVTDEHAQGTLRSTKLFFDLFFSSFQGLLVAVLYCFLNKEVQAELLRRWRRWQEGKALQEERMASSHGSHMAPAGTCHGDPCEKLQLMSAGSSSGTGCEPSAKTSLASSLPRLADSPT

| Binder | EC50 hGCGR CHO-K1 [nM] (cAMP, AlphaScreen) [1] | EC50 hGLP-1R CHO-K1 [nM] (cAMP, AlphaScreen) [2] | EC50 [nM] (cAMP in a murine insulinoma cell line) [3] | EC50 [nM] (inhibition of glycogen synthesis rate in primary rat hepatocytes) [4] |
| --- | --- | --- | --- | --- |
| B1 | 1.08 nM | 0.41 nM | 0.6 nM | 1.53 nM |
| B2 | 1.48 nM | 0.7 nM | 0.15 nM | 0.94 nM |
| B3 | 0.18 nM | 0.83 nM | 0.65 nM | 0.21 nM |
| B4 | 0.16 nM | 0.53 nM | 0.34 nM | 0.19 nM |
| B5 | 0.11 nM | 0.97 nM | 0.47 nM | 0.34 nM |
| B6 | 0.92 nM | 0.61 nM | 0.25 nM | 3.63 nM |
| B7 | 0.31 nM | 0.8 nM | 0.36 nM | 0.29 nM |
| B8 | 0.28 nM | 0.56 nM | 0.72 nM | 0.95 nM |
| B9 | 0.44 nM | 1.43 nM | 0.54 nM | 0.8 nM |
| B10 | 0.52 nM | 0.33 nM | 0.37 nM | 0.43 nM |
| B11 | 0.21 nM | 0.38 nM | 0.6 nM | 0.85 nM |
| B12 | 0.13 nM | 1.76 nM | 0.69 nM | 0.11 nM |
| B13 | 0.07 nM | 0.97 nM | 0.84 nM | 0.11 nM |
| B14 | 0.07 nM | 0.48 nM | 0.81 nM | 0.45 nM |
| B15 | 0.45 nM | 0.7 nM | 0.4 nM | 1.79 nM |
| B16 | 0.18 nM | 0.6 nM | 0.38 nM | 0.19 nM |
